Reference: US11834472B2, “Anti-IL-22 antibodies, antibody fragments, their immunoconjugates and uses thereof” (BioAtla, Inc., priority 2018, dated 2023)
Read-outs that look alike come from different tables or passages of the source.

T1: human IL-22 (Homo sapiens, UniProt Q9GZX6)
T1 sequence (Q9GZX6 34-179): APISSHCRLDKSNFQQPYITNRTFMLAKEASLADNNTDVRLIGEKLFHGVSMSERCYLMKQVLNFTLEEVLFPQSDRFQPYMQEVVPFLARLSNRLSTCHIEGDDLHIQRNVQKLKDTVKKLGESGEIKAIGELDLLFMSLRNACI

T2: mouse IL-22 (Mus musculus, UniProt Q9JJY9)
T2 sequence (Q9JJY9 34-179): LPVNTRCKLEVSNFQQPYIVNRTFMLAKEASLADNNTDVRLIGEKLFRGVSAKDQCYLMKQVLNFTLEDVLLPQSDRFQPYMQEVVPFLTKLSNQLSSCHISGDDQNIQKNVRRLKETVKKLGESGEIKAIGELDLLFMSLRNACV

T3: mouse IL-22 (mIL-22) (Mus musculus, UniProt Q9JJY9)
T3 sequence (Q9JJY9 34-179): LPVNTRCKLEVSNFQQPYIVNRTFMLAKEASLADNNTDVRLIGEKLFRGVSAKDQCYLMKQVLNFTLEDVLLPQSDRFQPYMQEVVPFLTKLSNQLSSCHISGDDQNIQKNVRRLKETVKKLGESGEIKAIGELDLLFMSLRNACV

B1: CPS09: mutant anti-IL-22 antibody binding human and mouse IL-22; light chain LC-04, heavy chain HC-25 (antibody, V domains shown)
VH: QVQLVQSGAEVKKPGASVKVSCKASGYIFRSYWIHWIRQPPGKGLEWIGRIYPGTGRTYYNEKFKGRVTISADKSISTAYLQWSSLKASDTAMYYCARSYDYSVAYWGQGTLVTVSS
VL: AIQLTQSPSSLSASVGDRVTITCSASSSVSYMHWYLQKPGQSPQLLIYETRKLASGVPSRFSGSGSGTDFTFTISSLEAEDAATYYCQQWSSNPYITFGQGTKVEIKR
B2: CPS17: mutant anti-IL-22 antibody binding human and mouse IL-22; light chain LC-04, heavy chain HC-49 (antibody, V domains shown)
VH: QVQLVQSGAEVKKPGASVKVSCKASGYIFRSYWIHWIRQPPGKGLEWIGRIYPGTGNTYYNRKFKGRVTISADKSISTAYLQWSSLKASDTAMYYCARSYMYSVAYWGQGTLVTVSS
VL: AIQLTQSPSSLSASVGDRVTITCSASSSVSYMHWYLQKPGQSPQLLIYETRKLASGVPSRFSGSGSGTDFTFTISSLEAEDAATYYCQQWSSNPYITFGQGTKVEIKR
B3: CPS14 (antibody, V domains shown)
VH: QVQLVQSGAEVKKPGASVKVSCKASGYIFTSYWIHWIRQPPGKGLEWIGRIYPGTGRTYYNRKFKGRVTISADKSISTAYLQWSSLKASDTAMYYCARSYDYSVAYWGQGTLVTVSS
VL: AIQLTQSPSSLSASVGDRVTITCSASSSVSYMHWYLQKPGQSPQLLIYETRKLASGVPSRFSGSGSGTDFTFTISSLEAEDAATYYCQQWSSNPYITFGQGTKVEIKR
B4: LC-E049K: one of the mutant antibodies in the CPE library, used as a control (antibody, V domains shown)
VH: QVQLVQSGAEVKKPGASVKVSCKASGYIFTSYWIHWIRQPPGKGLEWIGRIYPGTGNTYYNEKFKGRVTISADKSISTAYLQWSSLKASDTAMYYCARSYDSSCAYWGQGTLVTVSS
VL: AIQLTQSPSSLSASVGDRVTITCSASSSVSYMHWYLQKPGQSPQLLIYKTSKLASGVPSRFSGSGSGTDFTFTISSLEAEDAATYYCQQWSSNPYITFGQGTKVEIKR
B5: CPS04: mutant anti-IL-22 antibody binding human and mouse IL-22; light chain LC-07, heavy chain HC-09 (antibody, V domains shown)
VH: QVQLVQSGAEVKKPGASVKVSCKASGYIFRSYWIHWIRQPPGKGLEWIGRIYPGTGNTYYNRKFKGRVTISADKSISTAYLQWSSLKASDTAMYYCARSYDSSVAYWGQGTLVTVSS
VL: AIQLTQSPSSLSASVGDRVTITCSASSSVSYMHWYLQKPGQSPQLLIYKTSKLLSGVPSRFSGSGSGTDFTFTISSLEAEDAATYYCQQWSSNPYITFGQGTKVEIKR

Assays:
[1] = target: T1, human IL-22; assay: SPR capture assay, affinity to human IL-22; format: binding; conditions: human IL-22, SPR
Description: (§1) The affinity of the 10 antibodies of Table 1 was measured by Surface Plasma Resonance (SPR) using a capture assay in PBS buffer to generate binding curves at four different concentrations of each antibody (0.05, 0.1, 0.5, and 1.0 μg/ml). The Ka, Kd and KD values for the mutant antibodies were calculated from the curves for each of the antibodies.
(§2) The affinity of the 10 antibodies of Table 1 was measured by Surface Plasma Resonance (SPR) using a capture assay on a SPR-2 instrument (SierraSensiors, Hamburg, Germany). The antigens hIL-22 and mIL-22 were immobilized on chips. The running buffer for the assay contained 10 mM HEPES with a pH of 7.4, 500 mM NaCl, and 0.05% TWEEN® 20. […] The off-rate was measured for 6 minutes. Binding constants were calculated using the curve fitting software Analyzer2 (Sierra Sensors). Sensorgrams were analyzed with the instrument specific software and with BIAevaluation 4.1 software. The binding data were analyzed using the Langmuir 1:1 model (human IL-22) or a model for a heterogeneous ligand ([…]).
(§3) The antibodies were tested at four different concentrations of each antibody: 0.33 nM, 0.67 nM, 3.3 nM, 6.7 nM for hIL-22; 1, 2, […] for mIL-22. Antibody CPE-LC-E049K was used as a control.

[2] = target: T2, mouse IL-22; assay: SPR capture assay, affinity to mouse IL-22; format: binding; conditions: mouse IL-22, SPR
Description: as §1, §2, §3

[3] = target: T3, mouse IL-22 (mIL-22); assay: Inhibition of mIL-22 induced Stat3 phosphorylation in HepG2 cells; format: cell-based; conditions: mAb 6.7 nM
Description: One of the immediate functions of IL-22 is inducing phosphorylation of Stat3, a protein in the signaling pathway of IL-22. The 10 antibodies of Table 1 were tested in a cell-based assay for blocking IL-22-dependent phosphorylation of Stat3 through human or mouse IL-22 in HepG2 cells. Antibody hum10 and mutant CPE-LC-E049K were used as controls. Four concentrations of each of the antibodies were used: 0.11 μg/mL, 0.33 μg/mL, 1 μg/mL, and 3 μg/mL.
30,000 human HepG2 cells were seeded in 96 well plates and serum starved overnight. Three-fold dilutions of anti-IL-22 antibodies and control hum10 antibody at concentrations of 0.11 μg/mL, 0.33 μg/mL, 1 μg/mL, and 3 μg/mL were incubated with 200 ng/ml of hIL-22 or mIL-22 at 37° C. for one hour then added to the serum starved human HepG2 cells. The HepG2 cells were incubated with the antibody-IL-22 mixture at 37° C. for 20 minutes. After incubation, HepG2 cells were washed with PBS and lysed. Half of the cell lysate was used to determine the level of phosphorylated Stat3 using Cell Signaling kit #7300 following the vendor's protocol and the other half of the cell lysate was used to determine the level of total Stat3 by Western blot analysis using a Santa Cruz rabbit polyclonal antibody (Sc-7179) against human Stat3.

[4] = Pharmacokinetics in NOD SCID mice, plasma concentration by solid phase ELISA; format: in vivo, mouse; conditions: after a 10 mg/kg IV injection
Description: The pharmacokinetics of the mutant antibodies of Table 1 were analyzed in mice. The antibodies were injected into mice by IV injection at two doses 0.3 mg/kg and 10 mg/kg. The concentrations of the injected antibodies in the blood plasma were measured by solid phase ELISA.
Two anti-IL-22 antibodies CPS02 and CPS09 were tested in NOD SCID mice. The antibodies were injected via IV at two dosages: 0.3 mg/kg and 10 mg/kg. Three mice were used for each dose group. Blood samples were retrieved from the mice at 10 min, 1 h, 3 h 7 h, 24 h, 48 h, 96 h, 168 h, 240 h and 336 h after the IV injection. The concentrations of the injected antibodies in the blood samples were measured by solid phase ELISA.

[5] = system: imiquimod (IMQ) induced psoriasis; format: in vivo; conditions: for reduction in body weight of the treated mice: days 0-7, in comparison to dexamethasone / PBS (FIG. 13)
Description: Two anti-IL-22 antibodies of the present invention, CPS02 and CPS09, were used for the treatment of imiquimod (IMQ) induced psoriasis in mice (FIG. 12). The mice were male BALB/c mice, which were an albino, laboratory-bred strain of the house mouse. A total of 70 mice, at a body weight of 18-20 g, were acclimated for 7 days before induction of psoriasis.
The 70 mice were randomized into 7 groups (10 mice in each group). One group (group 1) was used as a negative control to which no imiquimod was administered to the mice, which was instead replaced with Vaseline. […] The other 6 groups (groups 2-7) were dosed topically with imiquimod at a dosage of 82.5 mg/mouse (5% cream) once daily (qd) for 8 consecutive days from day 0 to day 7 (20 mg for the left ear, 62.5 mg for the shaved back) to induce psoriasis. The back skin was shaved to expose an area of 2×3 cm^2. For the Vaseline control group, the Vaseline was also applied at 82.5 mg/mouse once daily (qd) for 8 consecutive days (20 mg for left ear, 62.5 mg for the shaved back) from day 0 to day 7.
Group 2 was a group of psoriasis-induced mice that were untreated to serve as a control group. The treatment period completely overlapped with the imiquimod application period (day 0 to day 7). For group 2, the mice received both imiquimod and […] on each day of the 8-day period (day 0 to day 7). For the groups that received intravenous (I.V.) injection, the imiquimod was applied within one hour after the I.V. injection on days 0 and 3.
Group 3 was treated with the steroid dexamethasone, which is a current therapeutic treatment used for psoriasis. The dexamethasone was topically applied twice a day (BID) for 8 days. Group 4 was treated with phosphate-buffered saline (PBS), which served as a negative control. Group 5 was treated with an isotype control antibody that also served as a negative control. Groups 6-7 were treated with the anti-IL22 antibodies CPS02 (A) and CPS09 (B), respectively. The treatments for Groups 4-7 were administered by a single intravenous (I.V.) injection on each of days 0 and 3. 3 mice in group 6 died on day 0 and 2 died on day 1. On day 3, the I.V. injection dosage for this group was decreased to 10 mg/kg.
During the 8 day treatment period, the ear thickness was measured on days 0, 3, 5 and 7. The body weight and various skin scores were recorded daily. Pictures of the psoriasis sites were taken on days 0, 3, 5 and 7. On days 1 and 4, about 60 μl blood was collected via retro-orbital bleeding over 24 hours and placed in BD Microtainer® tubes coated with dipotassium ethylenediaminetetraacetic acid (K2EDTA). Plasma was then collected (to get at least 20 μl plasma) and stored at −80° C.
Skin scores for erythema, scales and thickness were measured daily according to an established grading system. The erythema, scales and thickness were scored independently on a scale of from 0 to 4: 0 means none, 1 means slight, 2 means moderate, 3 means marked, and 4 means very marked. The cumulative (total) skin score was also calculated.
The effects of the treatments were analyzed statistically using two-way analysis of variance (ANOVA, Bonferroni post-tests) or one-way ANOVA analysis. For comparisons between the treatment groups and the control group, the p value is denoted in FIGS. 13-18 as (*) if less than 0.05, (**) if less than 0.01, or (***) if less than 0.001.

[6] = Aggregate formation at 10 mg/mL in PBS; format: physicochemical
[7] = Thermostability; format: physicochemical

Row | Molecule | ka [1] | kd [1] | ka [2] | kd [2] | STAT3 Phosphorylation; mIL22 % inhibition [3] | half-life in mice [4] | effect in treating psoriasis in the mouse model (summary) ([5]; IMQ psoriasis mice) | reduction in body weight of the treated mice ([5]; IMQ psoriasis mice) | reduction in body weight of the treated mice ([5]; IMQ psoriasis mice, listed as CSP09) | side effect (summary) ([5]; in comparison with the known treatment (dexamethasone)) | ear skin thickness ([5]; vs negative controls (isotype matched antibody, PBS, vehicle) (FIG. 14)) | skin erythema score ([5]; vs negative controls (isotype matched antibody, PBS, vehicle) (FIG. 15)) | skin scale score ([5]; vs negative controls (isotype matched antibody, PBS, vehicle) (FIG. 16)) | skin thickness ([5]; vs negative controls (isotype matched antibody, PBS, vehicle) (FIG. 17)) | Aggregate formation at 10 mg/mL in PBS [6] | Thermostability (% remaining activity 60 min); of duplicate samples [7]
1 | B1 | 860000 M·s | 2.18e-05 s⁻¹ | 194000 M·s | 0.000768 s⁻¹ | 63.12% | about 16 hours | especially effective in treating psoriasis | less reduction in body weight | reduction in body weight similar to the PBS buffer negative control | only a minimal side effect | less | lower | lower | lower | no | 102%
2 | B2 | 1.33e+06 M·s | 6.94e-05 s⁻¹ | 252000 M·s | 0.00158 s⁻¹ |  |  |  |  |  |  |  |  |  |  |  | 
3 | B3 | 1.13e+06 M·s | 3.55e-05 s⁻¹ | 256000 M·s | 0.00123 s⁻¹ |  |  |  |  |  |  |  |  |  |  |  | 
4 | B4 | 381000 M·s | 5.93e-05 s⁻¹ | 34100 M·s | 0.00137 s⁻¹ |  |  |  |  |  |  |  |  |  |  |  | 
5 | B5 | 1.28e+06 M·s | 3.74e-05 s⁻¹ | 279000 M·s | 0.00118 s⁻¹ |  |  |  |  |  |  |  |  |  |  |  | 
